In US20050164323:

Tests used:
[1] = molecular target: T1, MYHNSSQKRH (SEQ ID NO: 36)
T1 chain: MYHNSSQKRH

[2] = molecular target: T2, MYRRSYVFQT (SEQ ID NO: 30)
T2 chain: MYRRSYVFQT

[3] = molecular target: T3, NKRRATLPHPG (SEQ ID NO: 53)
T3 chain: NKRRATLPHPG

[4] = molecular target: T4, NKRRGSVPILR (SEQ ID NO: 57)
T4 chain: NKRRGSVPILR

[5] = molecular target: T5, NSRRPSRATWL (SEQ ID NO: 55)
T5 chain: NSRRPSRATWL

[6] = molecular target: T6, PKRPGSVHRTP (SEQ ID NO: 23)
T6 chain: PKRPGSVHRTP

[7] = molecular target: T7, Peptide 1 (FARKGSLRQ), substrate, pseudo-substrate PKC alpha
T7 chain: FARKGSLRQ

[8] = molecular target: T8, Peptide 3 (LKRSLSEM), substrate, Serum Response Factor
T8 chain: LKRSLSEM

[9] = molecular target: T9, Peptide 4 (RTPKLARQASIELPSM), substrate, lymphocyte-specific protein 1
T9 chain: RTPKLARQASIELPSM

[10] = molecular target: T10, QAWSKTTPRRI (SEQ ID NO: 31)
T10 chain: QAWSKTTPRRI

[11] = molecular target: T11, QKKRVSMILQS (SEQ ID NO: 59)
T11 chain: QKKRVSMILQS

[12] = molecular target: T12, QKRPSQRSKYL (SEQ ID NO: 17)
T12 chain: QKRPSQRSKYL

[13] = molecular target: T13, RGFLRSASLGR (SEQ ID NO: 32)
T13 chain: RGFLRSASLGR

[14] = molecular target: T14, RGRSRSAPPNL (SEQ ID NO: 29)
T14 chain: RGRSRSAPPNL

[15] = molecular target: T15, RLRRLTAREAA (SEQ ID NO: 56)
T15 chain: RLRRLTAREAA

[16] = molecular target: T16, RVVGGSLRGAQ (SEQ ID NO: 50)
T16 chain: RVVGGSLRGAQ

[17] = molecular target: T17, SPLRHSFQKQQ (SEQ ID NO: 25)
T17 chain: SPLRHSFQKQQ

[18] = molecular target: T18, SQKRPSQRHGS (SEQ ID NO: 42)
T18 chain: SQKRPSQRHGS

[19] = molecular target: T19, … (SEQ ID NO: 54)
T19 chain: SYTRFSLARQV

[20] = molecular target: T20, TRSKGTLRYMS (SEQ ID NO: 38)
T20 chain: TRSKGTLRYMS

[21] = molecular target: T21, VAKRESRGLKS (SEQ ID NO: 21)
T21 chain: VAKRESRGLKS

[22] = molecular target: T22, VVRTDSLKGRR (SEQ ID NO: 46)
T22 chain: VVRTDSLKGRR

[23] = molecular target: T23, WPWQVSLRTRF (SEQ ID NO: 48)
T23 chain: WPWQVSLRTRF

B1: PKC-θ kinase domain (PKC-θ KD; amino acid residues 362 to 706), C-terminal hexa-histidine tag, expressed in E. coli (protein)
chain: MGPELNKERPSLQIKLKIEDFILHKMLGKGSFGKVFLAEFKKTNQFFAIKALKKDVVLMDDDVECTMVEKRVLSLAWEHPFLTHMFCTFQTKENLFFVMEYLNGGDLMYHIQSCHKFDLSRATFYAAEIILGLQFLHSKGIVYRDLKLDNILLDKDGHIKIADFGMCKENMLGDAKTNTFCGTPDYIAPEILLGQKYNHSVDWWSFGVLLYEMLIGQSPFHGQDEEELFHSIRMDNPFYPRWLEKEAKDLLVKLFVREPEKRLGVRGDIRQHPLFREINWEELERKEIDPPFRPKVKSPFDCSNFDKEFLNEKPRLSFADRALINSMDQNMFRNFSFMNPGMERLISHHHHHH
phosphorylation of the peptide spot (32P, peptide array) [1]: shown to be substrates for PKC-θ
phosphorylation of the peptide spot (32P, peptide array) [2]: shown to be substrates for PKC-θ
phosphorylation of the peptide spot (32P, peptide array) [3]: shown to be substrates for PKC-θ
phosphorylation of the peptide spot (32P, peptide array) [4]: shown to be substrates for PKC-θ
phosphorylation of the peptide spot (32P, peptide array) [5]: shown to be substrates for PKC-θ
phosphorylation of the peptide spot (32P, peptide array) [6]: shown to be substrates for PKC-θ
(kcat/Km)^η, slope of the solvent microviscosity effect, 250 mM NaCl [7]: the slope had a (kcat/Km)^η value of 0.86 in 250 mM NaCl
kcat/Km [7]: 2.7e+06 M⁻¹ s⁻¹
kcat [8]: 21 s⁻¹
kcat/Km [8]: 51000 M⁻¹ s⁻¹
kcat [9]: 14 s⁻¹
kcat/Km [9]: 58000 M⁻¹ s⁻¹
phosphorylation of the peptide spot (32P, peptide array) [10]: shown to be substrates for PKC-θ
phosphorylation of the peptide spot (32P, peptide array) [11]: shown to be substrates for PKC-θ
phosphorylation of the peptide spot (32P, peptide array) [12]: shown to be substrates for PKC-θ
phosphorylation of the peptide spot (32P, peptide array) [13]: shown to be substrates for PKC-θ
phosphorylation of the peptide spot (32P, peptide array) [14]: shown to be substrates for PKC-θ
phosphorylation of the peptide spot (32P, peptide array) [15]: shown to be substrates for PKC-θ
phosphorylation of the peptide spot (32P, peptide array) [16]: shown to be substrates for PKC-θ
phosphorylation of the peptide spot (32P, peptide array) [17]: shown to be substrates for PKC-θ
phosphorylation of the peptide spot (32P, peptide array) [18]: shown to be substrates for PKC-θ
phosphorylation of the peptide spot (32P, peptide array) [19]: shown to be substrates for PKC-θ
phosphorylation of the peptide spot (32P, peptide array) [20]: shown to be substrates for PKC-θ
phosphorylation of the peptide spot (32P, peptide array) [21]: shown to be substrates for PKC-θ
phosphorylation of the peptide spot (32P, peptide array) [22]: shown to be substrates for PKC-θ
phosphorylation of the peptide spot (32P, peptide array) [23]: shown to be substrates for PKC-θ
